In patent US20150377889A1, “GALECTIN-3 AS A MARKER FOR PROSTATE CANCER” (Wayne State University, priority 2013, published 2015):

Columns and labels:
[1] = tested on: LNCaP, Du145, and PC3M cell lines; assay: Wound-healing (scratch) assay; type: cell-based, human; conditions: 24 hr, compared with the control
Method: Wound-healing Assay. A wound-healing assay, the scratch assay, was performed according to the protocol published in Liang, et al. (2007), Nat. Protoc. 2, 329-333. Briefly, in this scratch assay 60-mm dishes were coated with ECM and incubated overnight, unbound ECM was removed and the dishes were blocked with bovine serum albumin. Subconfluent growing cells were resuspended in a tissue culture dish by washing cells with PBS, adding versene containing trypsin, and mixing cells with medium containing serum. Cells were then plated onto the prepared 60-mm dish to create a confluent monolayer, and incubated for 6 hr at 37° C.
The cell lines LNCaP (null galectin-3), DU145 (stable clone with reduced galectin-3 expression), and PC3M were used to examine the effect of full-length galectin-3, galectin-3 1-107, and galectin-3 108-250 on prostate cancer cell motility using the scratch assay. The assay was performed with LNCaP, Du145, and PC3M cultured cell lines stimulated by full-length galectin-3, and fragments galectin-3 1-107 and 108-250. A uniform wound was made in each plate using a 1-μl pipette tip. The wound area was observed immediately, then at 24 hr after creation the cells were counted. Cells were grown under identical conditions.

[2] = tested on: co-cultured BAMEC and LNCaP cells; assay: Three-dimensional growth and tube formation assay, BAMEC/LNCaP co-culture on […]; type: cell-based, bovine, human
Method: Three-dimensional Growth and Tube Formation Assay. To analyze in vitro angiogenesis and interactions between epithelial and endothelial cell formation of tubular networks by co-cultured BAMEC and LNCaP cells, a three-dimensional growth and tube formation assay was performed. Briefly, […]® (10 μl) was added to each chamber of the slide (μ-Slide, ibidi, Martinsried, Germany) and gelled by a 30-min incubation at room temperature, after which 15,000 BAMEC and 5000 LNCaP cells were plated onto the gel in 50 μl of Eagle's minimal essential complete medium. In some chambers, full-length galectin-3 or its fragments were added. After 36 hr, three-dimensional structures were observed under phase contrast microscope and photographed. Images were acquired with an Olympus IX71 microscope supporting a Hamamatsu ORCA-ER video camera. Tube formation image analysis was done using the web-based Image Analysis Win-Tube module of Wimasis online software.
Three-dimensional heterotypic co-cultures of epithelial (LNCaP) and endothelial (BAMEC) cells were performed on […]® to study tube formation in the presence of 10 μg/ml galectin-3 and its fragments. […] FIG. 2B presents a quantitative evaluation of the tube formation assay.

B1: galectin-3 1-107: recombinant fragment 1-107 of human galectin-3 (SEQ ID NO:2), NH2-terminal domain with collagen-like sequence (protein, listed as Homo sapiens)
chain: MADNFSLHDALSGSGNPNPQGWPGAWGNQPAGAGGYPGASYPGAYPGQAPPGAYPGQAPPGAYPGAPGAYPGAPAPGVYPGPPSGPGAYPSSGQPSATGAYPATGPY
prostate cancer cell motility [1]: did not show a significant increase in motility | tube formation: loops ([2]; 10 μg/ml protein added to medium, 36 hr, control 0): 0 | branching morphogenesis of endothelial cells ([2]; 10 μg/ml protein, BAMEC/LNCaP co-culture): failed to do so
